Paper doi:10.1101/851261

Assays:
[1] = target: AjKissR1 (Apostichopus japonicus); assay: flow cytometry on cells
[2] = target: AjKissR2 (Apostichopus japonicus); assay: flow cytometry on cells

| IC50 [1] [nM] | IC50 [2] [nM] | Substance |
| --- | --- | --- |
| 353 | – | AjKiss1b (peptide) |
| – | 95.2 | AjKiss1a (peptide) |
